Starred links: 1 amine or outer side, 2 acyl side, 3 side chain; linkers in the order of their positions; H or OH if unused. Non-standard residues stand in square brackets, D forms with d. *: point of attachment. Pipz(1-CH2CO,4-CH2CH2NH) = O=C(CN1CCN(CCN[*:1])CC1)[*:2]; C18 diacid = O=C(O)CCCCCCCCCCCCCCCCC(=O)*; γGlu = O=C(O)[C@H](CCC(=O)[*:2])N[*:1]; 2Pal = N[C@@H](Cc1ccccn1)C(=O)O; 3Pal = N[C@@H](Cc1cccnc1)C(=O)O; 4Pal = N[C@@H](Cc1ccncc1)C(=O)O; NMeL = CN[C@@H](CC(C)C)C(=O)O; NMeA = CN[C@@H](C)C(=O)O; Nle = CCCC[C@H](N)C(=O)O; Sar = CNCC(=O)O Some results are limits rather than exact numbers.

This note sets out measurements from patent publication US20240279278A1, “NMU RECEPTOR 2 AGONISTS” (Boehringer Ingelheim International GmbH, priority 2023, published 2024).

This experiment addresses T1, human neuromedin U receptor 1 (human, UniProt Q9HB89 24-426).
T1 sequence (looked up): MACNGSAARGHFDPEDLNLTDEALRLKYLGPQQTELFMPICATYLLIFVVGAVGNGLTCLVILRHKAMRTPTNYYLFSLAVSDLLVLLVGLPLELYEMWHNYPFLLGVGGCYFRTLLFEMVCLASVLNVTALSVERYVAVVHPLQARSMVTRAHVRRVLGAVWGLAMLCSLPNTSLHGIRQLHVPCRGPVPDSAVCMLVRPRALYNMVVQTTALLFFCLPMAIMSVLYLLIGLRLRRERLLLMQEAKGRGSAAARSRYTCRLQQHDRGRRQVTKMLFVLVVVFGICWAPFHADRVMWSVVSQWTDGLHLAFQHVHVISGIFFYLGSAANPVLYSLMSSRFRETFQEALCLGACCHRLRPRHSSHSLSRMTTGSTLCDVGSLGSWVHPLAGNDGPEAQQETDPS
The experiment can be described thus: cell-based or functional assay.

B1: C18DA-gGlu3-Sar15-AEPipAc-Tyr-Phe-NMeLeu-Nle-His-NMeAla-Arg-Gly-NH2 (peptide)
peptide: EEEXXXXXXXXXXXXXXXXYFLXHARG
HELM: PEPTIDE1{[O=C(O)CCCCCCCCCCCCCCCCC(=O)[*:2]].[gGlu].[gGlu].[gGlu].[Sar].[Sar].[Sar].[Sar].[Sar].[Sar].[Sar].[Sar].[Sar].[Sar].[Sar].[Sar].[Sar].[Sar].[Sar].[O=C(CN1CCN(CCN[*:1])CC1)[*:2]].Y.F.[meL].[Nle].H.[meA].R.G.[am]}$$$$V2.0
SMILES: CCCC[C@H](NC(=O)[C@H](CC(C)C)N(C)C(=O)[C@H](Cc1ccccc1)NC(=O)[C@H](Cc1ccc(O)cc1)NC(=O)CN1CCN(CCNC(=O)CN(C)C(=O)CN(C)C(=O)CN(C)C(=O)CN(C)C(=O)CN(C)C(=O)CN(C)C(=O)CN(C)C(=O)CN(C)C(=O)CN(C)C(=O)CN(C)C(=O)CN(C)C(=O)CN(C)C(=O)CN(C)C(=O)CN(C)C(=O)CN(C)C(=O)CC[C@H](NC(=O)CC[C@H](NC(=O)CC[C@H](NC(=O)CCCCCCCCCCCCCCCCC(=O)O)C(=O)O)C(=O)O)C(=O)O)CC1)C(=O)N[C@@H](Cc1c[nH]cn1)C(=O)N(C)[C@@H](C)C(=O)N[C@@H](CCCNC(=N)N)C(=O)NCC(N)=O
As to B1, the “EC50 (hNMUR1) buffer” value was over 1000 nM.

B2: C18DA-gGlu3-Sar15-AEPipAc-Tyr-Phe-NMeLeu-Nle-3Pal-Pro-Arg-Gly-NH2 (peptide)
peptide: {C18 diacid}-[γGlu][γGlu][γGlu][Sar][Sar][Sar][Sar][Sar][Sar][Sar][Sar][Sar][Sar][Sar][Sar][Sar][Sar][Sar][Pipz(1-CH2CO,4-CH2CH2NH)]YF[NMeL][Nle][3Pal]PRG-NH2
SMILES: CCCC[C@H](NC(=O)[C@H](CC(C)C)N(C)C(=O)[C@H](Cc1ccccc1)NC(=O)[C@H](Cc1ccc(O)cc1)NC(=O)CN1CCN(CCNC(=O)CN(C)C(=O)CN(C)C(=O)CN(C)C(=O)CN(C)C(=O)CN(C)C(=O)CN(C)C(=O)CN(C)C(=O)CN(C)C(=O)CN(C)C(=O)CN(C)C(=O)CN(C)C(=O)CN(C)C(=O)CN(C)C(=O)CN(C)C(=O)CN(C)C(=O)CC[C@H](NC(=O)CC[C@H](NC(=O)CC[C@H](NC(=O)CCCCCCCCCCCCCCCCC(=O)O)C(=O)O)C(=O)O)C(=O)O)CC1)C(=O)N[C@@H](Cc1cccnc1)C(=O)N1CCC[C@H]1C(=O)N[C@@H](CCCNC(=N)N)C(=O)NCC(N)=O
B2: the “EC50 (hNMUR1) buffer” value was over 1000 nM.

B3: C20DA-gGlu3-Sar9-AEPipAc-Tyr-Phe-NMeLeu-Nle-Dbu-Pro-Arg-Gly-NH2 (peptide)
peptide: EEEXXXXXXXXXXYFLXXPRG
HELM: PEPTIDE1{[O=C(O)CCCCCCCCCCCCCCCCCCC(=O)[*:2]].[gGlu].[gGlu].[gGlu].[Sar].[Sar].[Sar].[Sar].[Sar].[Sar].[Sar].[Sar].[Sar].[O=C(CN1CCN(CCN[*:1])CC1)[*:2]].Y.F.[meL].[Nle].[Dab].P.R.G.[am]}$$$$V2.0
SMILES: CCCC[C@H](NC(=O)[C@H](CC(C)C)N(C)C(=O)[C@H](Cc1ccccc1)NC(=O)[C@H](Cc1ccc(O)cc1)NC(=O)CN1CCN(CCNC(=O)CN(C)C(=O)CN(C)C(=O)CN(C)C(=O)CN(C)C(=O)CN(C)C(=O)CN(C)C(=O)CN(C)C(=O)CN(C)C(=O)CN(C)C(=O)CC[C@H](NC(=O)CC[C@H](NC(=O)CC[C@H](NC(=O)CCCCCCCCCCCCCCCCCCC(=O)O)C(=O)O)C(=O)O)C(=O)O)CC1)C(=O)N[C@@H](CCN)C(=O)N1CCC[C@H]1C(=O)N[C@@H](CCCNC(=N)N)C(=O)NCC(N)=O
For B3, the “EC50 (hNMUR1) buffer” value stood at 540 nM.

B4: C20DA-gGlu3-Sar9-AEPipAc-Tyr-Phe-NMeLeu-Nle-Dbu-NMeAla-Arg-Gly-NH2 (peptide)
peptide: EEEXXXXXXXXXXYFLXXARG
HELM: PEPTIDE1{[O=C(O)CCCCCCCCCCCCCCCCCCC(=O)[*:2]].[gGlu].[gGlu].[gGlu].[Sar].[Sar].[Sar].[Sar].[Sar].[Sar].[Sar].[Sar].[Sar].[O=C(CN1CCN(CCN[*:1])CC1)[*:2]].Y.F.[meL].[Nle].[Dab].[meA].R.G.[am]}$$$$V2.0
SMILES: CCCC[C@H](NC(=O)[C@H](CC(C)C)N(C)C(=O)[C@H](Cc1ccccc1)NC(=O)[C@H](Cc1ccc(O)cc1)NC(=O)CN1CCN(CCNC(=O)CN(C)C(=O)CN(C)C(=O)CN(C)C(=O)CN(C)C(=O)CN(C)C(=O)CN(C)C(=O)CN(C)C(=O)CN(C)C(=O)CN(C)C(=O)CC[C@H](NC(=O)CC[C@H](NC(=O)CC[C@H](NC(=O)CCCCCCCCCCCCCCCCCCC(=O)O)C(=O)O)C(=O)O)C(=O)O)CC1)C(=O)N[C@@H](CCN)C(=O)N(C)[C@@H](C)C(=O)N[C@@H](CCCNC(=N)N)C(=O)NCC(N)=O
As for B4, the “EC50 (hNMUR1) buffer” value was over 1000 nM.

B5: C20DA-gGlu3-Sar12-AEPipAc-Tyr-Phe-NMeLeu-Nle-Dbu-NMeAla-Arg-Gly-NH2 (peptide)
peptide: EEEXXXXXXXXXXXXXYFLXXARG
HELM: PEPTIDE1{[O=C(O)CCCCCCCCCCCCCCCCCCC(=O)[*:2]].[gGlu].[gGlu].[gGlu].[Sar].[Sar].[Sar].[Sar].[Sar].[Sar].[Sar].[Sar].[Sar].[Sar].[Sar].[Sar].[O=C(CN1CCN(CCN[*:1])CC1)[*:2]].Y.F.[meL].[Nle].[Dab].[meA].R.G.[am]}$$$$V2.0
SMILES: CCCC[C@H](NC(=O)[C@H](CC(C)C)N(C)C(=O)[C@H](Cc1ccccc1)NC(=O)[C@H](Cc1ccc(O)cc1)NC(=O)CN1CCN(CCNC(=O)CN(C)C(=O)CN(C)C(=O)CN(C)C(=O)CN(C)C(=O)CN(C)C(=O)CN(C)C(=O)CN(C)C(=O)CN(C)C(=O)CN(C)C(=O)CN(C)C(=O)CN(C)C(=O)CN(C)C(=O)CC[C@H](NC(=O)CC[C@H](NC(=O)CC[C@H](NC(=O)CCCCCCCCCCCCCCCCCCC(=O)O)C(=O)O)C(=O)O)C(=O)O)CC1)C(=O)N[C@@H](CCN)C(=O)N(C)[C@@H](C)C(=O)N[C@@H](CCCNC(=N)N)C(=O)NCC(N)=O
As to B5, the “EC50 (hNMUR1) buffer” value was over 1000 nM.

B6: C18DA-gGlu3-Sar15-AEPipAc-Tyr-Phe-NMeLeu-Nle-NMeArg-NMeAla-Arg-Gly-NH2 (peptide)
peptide: EEEXXXXXXXXXXXXXXXXYFLXRARG
HELM: PEPTIDE1{[O=C(O)CCCCCCCCCCCCCCCCC(=O)[*:2]].[gGlu].[gGlu].[gGlu].[Sar].[Sar].[Sar].[Sar].[Sar].[Sar].[Sar].[Sar].[Sar].[Sar].[Sar].[Sar].[Sar].[Sar].[Sar].[O=C(CN1CCN(CCN[*:1])CC1)[*:2]].Y.F.[meL].[Nle].[meR].[meA].R.G.[am]}$$$$V2.0
SMILES: CCCC[C@H](NC(=O)[C@H](CC(C)C)N(C)C(=O)[C@H](Cc1ccccc1)NC(=O)[C@H](Cc1ccc(O)cc1)NC(=O)CN1CCN(CCNC(=O)CN(C)C(=O)CN(C)C(=O)CN(C)C(=O)CN(C)C(=O)CN(C)C(=O)CN(C)C(=O)CN(C)C(=O)CN(C)C(=O)CN(C)C(=O)CN(C)C(=O)CN(C)C(=O)CN(C)C(=O)CN(C)C(=O)CN(C)C(=O)CN(C)C(=O)CC[C@H](NC(=O)CC[C@H](NC(=O)CC[C@H](NC(=O)CCCCCCCCCCCCCCCCC(=O)O)C(=O)O)C(=O)O)C(=O)O)CC1)C(=O)N(C)[C@@H](CCCNC(=N)N)C(=O)N(C)[C@@H](C)C(=O)N[C@@H](CCCNC(=N)N)C(=O)NCC(N)=O
Consider B6, for which the “EC50 (hNMUR1) buffer” value worked out at 1300 nM.

B7: C18DA-gGlu3-Sar15-AEPipAc-Tyr-Phe-NMeLeu-Nle-4Pal-NMeAla-Arg-Gly-NH2 (peptide)
peptide: {C18 diacid}-[γGlu][γGlu][γGlu][Sar][Sar][Sar][Sar][Sar][Sar][Sar][Sar][Sar][Sar][Sar][Sar][Sar][Sar][Sar][Pipz(1-CH2CO,4-CH2CH2NH)]YF[NMeL][Nle][4Pal][NMeA]RG-NH2
SMILES: CCCC[C@H](NC(=O)[C@H](CC(C)C)N(C)C(=O)[C@H](Cc1ccccc1)NC(=O)[C@H](Cc1ccc(O)cc1)NC(=O)CN1CCN(CCNC(=O)CN(C)C(=O)CN(C)C(=O)CN(C)C(=O)CN(C)C(=O)CN(C)C(=O)CN(C)C(=O)CN(C)C(=O)CN(C)C(=O)CN(C)C(=O)CN(C)C(=O)CN(C)C(=O)CN(C)C(=O)CN(C)C(=O)CN(C)C(=O)CN(C)C(=O)CC[C@H](NC(=O)CC[C@H](NC(=O)CC[C@H](NC(=O)CCCCCCCCCCCCCCCCC(=O)O)C(=O)O)C(=O)O)C(=O)O)CC1)C(=O)N[C@@H](Cc1ccncc1)C(=O)N(C)[C@@H](C)C(=O)N[C@@H](CCCNC(=N)N)C(=O)NCC(N)=O
For the molecule B7, the “EC50 (hNMUR1) buffer” value was over 1000 nM.

B8: C18DA-gGlu3-Sar15-AEPipAc-Tyr-Phe-NMeLeu-Nle-2Pal-Pro-Arg-Gly-NH2 (peptide)
peptide: {C18 diacid}-[γGlu][γGlu][γGlu][Sar][Sar][Sar][Sar][Sar][Sar][Sar][Sar][Sar][Sar][Sar][Sar][Sar][Sar][Sar][Pipz(1-CH2CO,4-CH2CH2NH)]YF[NMeL][Nle][2Pal]PRG-NH2
SMILES: CCCC[C@H](NC(=O)[C@H](CC(C)C)N(C)C(=O)[C@H](Cc1ccccc1)NC(=O)[C@H](Cc1ccc(O)cc1)NC(=O)CN1CCN(CCNC(=O)CN(C)C(=O)CN(C)C(=O)CN(C)C(=O)CN(C)C(=O)CN(C)C(=O)CN(C)C(=O)CN(C)C(=O)CN(C)C(=O)CN(C)C(=O)CN(C)C(=O)CN(C)C(=O)CN(C)C(=O)CN(C)C(=O)CN(C)C(=O)CN(C)C(=O)CC[C@H](NC(=O)CC[C@H](NC(=O)CC[C@H](NC(=O)CCCCCCCCCCCCCCCCC(=O)O)C(=O)O)C(=O)O)C(=O)O)CC1)C(=O)N[C@@H](Cc1ccccn1)C(=O)N1CCC[C@H]1C(=O)N[C@@H](CCCNC(=N)N)C(=O)NCC(N)=O
Consider B8, for which the “EC50 (hNMUR1) buffer” value was over 1000 nM.

B9: C18DA-gGlu3-Sar15-AEPipAc-Tyr-Phe-NMeLeu-Nle-3Pal-NMeAla-Arg-Gly-NH2 (peptide)
peptide: {C18 diacid}-[γGlu][γGlu][γGlu][Sar][Sar][Sar][Sar][Sar][Sar][Sar][Sar][Sar][Sar][Sar][Sar][Sar][Sar][Sar][Pipz(1-CH2CO,4-CH2CH2NH)]YF[NMeL][Nle][3Pal][NMeA]RG-NH2
SMILES: CCCC[C@H](NC(=O)[C@H](CC(C)C)N(C)C(=O)[C@H](Cc1ccccc1)NC(=O)[C@H](Cc1ccc(O)cc1)NC(=O)CN1CCN(CCNC(=O)CN(C)C(=O)CN(C)C(=O)CN(C)C(=O)CN(C)C(=O)CN(C)C(=O)CN(C)C(=O)CN(C)C(=O)CN(C)C(=O)CN(C)C(=O)CN(C)C(=O)CN(C)C(=O)CN(C)C(=O)CN(C)C(=O)CN(C)C(=O)CN(C)C(=O)CC[C@H](NC(=O)CC[C@H](NC(=O)CC[C@H](NC(=O)CCCCCCCCCCCCCCCCC(=O)O)C(=O)O)C(=O)O)C(=O)O)CC1)C(=O)N[C@@H](Cc1cccnc1)C(=O)N(C)[C@@H](C)C(=O)N[C@@H](CCCNC(=N)N)C(=O)NCC(N)=O
Turning to B9, the “EC50 (hNMUR1) buffer” value was over 1000 nM.
